Assay in all cases: purified protein
Common to all, as to conditions: 5 mM GSH, 0.10 M Tris-HCl pH 7.7, 37 °C, 1 h

Substrate in data set [1]: C1O[C@@H]1[C@@H]1CO1
Substrate in data set [2]: C1O[C@H]1[C@H]1CO1
Substrate in data set [3]: C1O[C@@H]1[C@H]1CO1

These results are taken from publication PMC3850785.

B1: human GST T1-1 (Homo sapiens) (protein)
chain: GLELYLDLLSQPCRAVYIFAKKNDIPFELRIVDLIKGQHLSDAFAQVNPLKKVPALKDGDFTLTESVAILLYLTRKYKVPDYWYPQDLQARARVDEYLAWQHTTLRRSCLRALWHKVMFPVFLGEPVSPQTLAATLAELDVTLQLLEDKFLQNKAFLTGPHISLADLVAITELMHPVGAGCQVFEGRPKLATWRQRVEAAVGEDLFQEAHEVILKAKDFPPADPTIKQKLMPWVLAMIR
As to B1, in “purified protein [1]”, the Km worked out at 790 ± 30 µM, the kcat is 0.0618 s⁻¹ and the kcat/Km came out at 78.3 M⁻¹ s⁻¹. In “purified protein [2]”, the Km was found to be 930 ± 10 µM, the kcat was determined as 0.0617 s⁻¹ and the kcat/Km is 66.7 M⁻¹ s⁻¹. In the data set “purified protein [3]”, the Km worked out at 370 ± 10 µM, the kcat worked out at 0.0403 s⁻¹ and the kcat/Km worked out at 108 M⁻¹ s⁻¹.

B2: human GST M1-1 (Homo sapiens) (protein)
chain: PMILGYWDIRGLAHAIRLLLEYTDSSYEEKKYTMGDAPDYDRSQWLNEKFKLGLDFPNLPYLIDGAHKITQSNAILCYIARKHNLCGETEEEKIRVDILENQTMDNHMQLGMICYNPEFEKLKPKYLEELPEKLKLYSEFLGKRPWFAGNKITFVDFLVYDVLDLHRIFEPKCLDAFPNLKDFISRFEGLEKISAYMKSSRFLPRPVFSKMAVWGNK
Take B2: the Km in the data set “purified protein [1]” was 730 ± 60 µM. For the same protein, in “purified protein [2]”, the Km is 810 ± 50 µM, the kcat amounted to 0.074 s⁻¹ and the kcat/Km turned out to be 91.7 M⁻¹ s⁻¹. In “purified protein [3]”, the Michaelis-Menten constant (Km) was 920 ± 330 µM, the kcat came to 0.0497 s⁻¹ and the kcat/Km came out at 56.7 M⁻¹ s⁻¹.

B3: human GST A3-3 (Homo sapiens) (protein)
chain: AGKPKLHYFNGRGRMEPIRWLLAAAGVEFEEKFIGSAEDLGKLRNDGSLMFQQVPMVEIDGMKLVQTRAILNYIASKYNLYGKDIKERALIDMYTEGMADLNEMILLLPLCRPEEKDAKIALIKEKTKSRYFPAFEKVLQSHGQDYLVGNKLSRADISLVELLYYVEELDSSLISNFPLLKALKTRISNLPTVKKFLQPGSPRKPPADAKALEEARKIFRF
B3: the figures for the Km in “purified protein [1]”, in “purified protein [2]” and in “purified protein [3]” were 480 ± 330 µM, 510 ± 80 µM and 750 ± 120 µM, respectively. Besides, the kcat is 0.0253 s⁻¹ in the data set “purified protein [1]”, 0.028 s⁻¹ in the data set “purified protein [2]” and 0.0302 s⁻¹ in the data set “purified protein [3]”. The kcat/Km in the data set “purified protein [1]” was 66.7 M⁻¹ s⁻¹; in the data set “purified protein [2]”, 55 M⁻¹ s⁻¹; in “purified protein [3]” it was 40 M⁻¹ s⁻¹.

B4: human GST P1-1 (Homo sapiens) (protein)
chain: PPYTVVYFPVRGRCAALRMLLADQGQSWKEEVVTVETWQEGSLKASCLYGQLPKFQDGDLTLYQSNTILRHLGRTLGLYGKDQQEAALVDMVNDGVEDLRCKYISLIYTNYEAGKDDYVKALPGQLKPFETLLSQNQGGKTFIVGDQISFADYNLLDLLLIHEVLAPGCLDAFPLLSAYVGRLSARPKLKAFLASPEYVNLPINGNGKQ
As for B4, the results for the Km in “purified protein [1]”, in the data set “purified protein [2]” and in “purified protein [3]” were 740 ± 330 µM, 910 ± 10 µM and 590 ± 150 µM, respectively. Also, the values for the kcat in the data set “purified protein [1]”, in the data set “purified protein [2]” and in “purified protein [3]” were 0.044 s⁻¹, 0.0442 s⁻¹ and 0.0265 s⁻¹, respectively. Besides, the values for the kcat/Km in the data set “purified protein [1]”, in “purified protein [2]” and in “purified protein [3]” were 65 M⁻¹ s⁻¹, 48.3 M⁻¹ s⁻¹ and 46.7 M⁻¹ s⁻¹, respectively.

B5: rat GST 5-5 (Rattus norvegicus) (protein)
chain: VLELYLDLLSQPCRAIYIFAKKNNIPFQMHTVELRKGEHLSDAFAQVNPMKKVPAMKDGGFTLCESVAILLYLAHKYKVPDHWYPQDLQARARVDEYLAWQHTTLRRSCLRTLWHKVMFPVFLGEQIRPEMLAATLADLDVNVQVLEDQFLQDKDFLVGPHISLADVVAITELMHPVGGGCPVFEGRPRLAAWYRRVEAAVGKDLFLEAHEVILKVRDCPPADPVIKQKLMPRVLTMIQ
With B5, the values for the Km in “purified protein [1]”, in the data set “purified protein [2]” and in the data set “purified protein [3]” were 770 ± 20 µM, 800 ± 60 µM and 830 ± 150 µM, respectively. Further, the kcat was 0.0638 s⁻¹ in “purified protein [1]”, 0.0573 s⁻¹ in “purified protein [2]” and 0.0308 s⁻¹ in “purified protein [3]”. The kcat/Km in the data set “purified protein [1]” amounted to 83.3 M⁻¹ s⁻¹; in “purified protein [2]”, 71.7 M⁻¹ s⁻¹; in “purified protein [3]”, 38.3 M⁻¹ s⁻¹.

B6: human GST A1-1 (Homo sapiens) (protein)
chain: AEKPKLHYFNARGRMESTRWLLAAAGVEFEEKFIKSAEDLDKLRNDGYLMFQQVPMVEIDGMKLVQTRAILNYIASKYNLYGKDIKERALIDMYIEGIADLGEMILLLPVCPPEEKDAKLALIKEKIKNRYFPAFEKVLKSHGQDYLVGNKLSRADIHLVELLYYVEELDSSLISSFPLLKALKTRISNLPTVKKFLQPGSPRKPPMDEKSLEEARKIFRF
On to B6, for which the figures for the Km in “purified protein [1]”, in the data set “purified protein [2]” and in the data set “purified protein [3]” were 300 ± 50 µM, 320 ± 10 µM and 540 ± 30 µM, respectively. Also, the kcat in “purified protein [1]” was 0.0228 s⁻¹; in “purified protein [2]”, 0.0218 s⁻¹; in “purified protein [3]”, 0.0342 s⁻¹. Besides, the kcat/Km was 78.3 M⁻¹ s⁻¹ in “purified protein [1]”, 68.3 M⁻¹ s⁻¹ in the data set “purified protein [2]” and 63.3 M⁻¹ s⁻¹ in the data set “purified protein [3]”.
